Data as given in article PMC3176292, “Mutations in Protein-Binding Hot-Spots on the Hub Protein Smad3 Differentially Affect Its Protein Interactions and Smad3-Regulated Gene Expression” (PLoS ONE, 2011).

T1: Flag-SkiW274E, full length (UniProt P12755 1-728, W274E)
T1 construct: plasmid pCMV5b-Flag-SkiW274E (from K. Luo); also called SkiW274E FL; SKI274E; source: HEK-293, transfected, in lysate
T1 sequence (looked up): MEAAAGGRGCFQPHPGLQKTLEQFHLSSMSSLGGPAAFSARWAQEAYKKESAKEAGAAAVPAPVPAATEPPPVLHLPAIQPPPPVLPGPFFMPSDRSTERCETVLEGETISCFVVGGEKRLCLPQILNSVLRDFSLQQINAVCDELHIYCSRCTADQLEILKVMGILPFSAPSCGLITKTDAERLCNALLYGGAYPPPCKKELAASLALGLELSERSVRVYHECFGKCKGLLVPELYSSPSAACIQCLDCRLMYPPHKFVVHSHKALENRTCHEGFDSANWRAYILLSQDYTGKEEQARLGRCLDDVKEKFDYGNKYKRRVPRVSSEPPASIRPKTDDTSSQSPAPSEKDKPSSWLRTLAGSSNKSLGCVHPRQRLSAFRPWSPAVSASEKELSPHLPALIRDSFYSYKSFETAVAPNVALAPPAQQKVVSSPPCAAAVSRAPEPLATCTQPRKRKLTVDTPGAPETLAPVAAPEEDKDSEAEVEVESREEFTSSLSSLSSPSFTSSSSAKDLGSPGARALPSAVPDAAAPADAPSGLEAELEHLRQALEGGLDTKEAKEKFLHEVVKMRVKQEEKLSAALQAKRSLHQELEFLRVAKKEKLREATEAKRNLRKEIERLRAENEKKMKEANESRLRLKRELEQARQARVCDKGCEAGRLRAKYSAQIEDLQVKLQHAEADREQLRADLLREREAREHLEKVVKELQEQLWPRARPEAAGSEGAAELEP

B1: Renilla luciferase-Smad3 C338A (natural protein, UniProt P84022 1-425, looked up)
chain: MSSILPFTPPIVKRLLGWKKGEQNGQEEKWCEKAVKSLVKKLKKTGQLDELEKAITTQNVNTKCITIPRSLDGRLQVSHRKGLPHVIYCRLWRWPDLHSHHELRAMELCEFAFNMKKDEVCVNPYHYQRVETPVLPPVLVPRHTEIPAEFPPLDDYSHSIPENTNFPAGIEPQSNIPETPPPGYLSEDGETSDHQMNHSMDAGSPNLSPNPMSPAHNNLDLQPVTYCEPAFWCSISYYELNQRVGETFHASQPSMTVDGFTDPSNSERFCLGLLSNVNRNAAVELTRRHIGRGVRLYYIGGEVFAECLSDSAIFVQSPNCNQRYGWHPATVCKIPPGANLKIFNNQEFAALLAQSVNQGFEAVYQLTRMCTIRMSFVKGWGAEYRRQTVTSTPCWIELHLNGPLQWLDKVLTQMGSPSIRCSSVS
notes: Smad3; source: HEK-293, transfected together with constitutively active Alk5, in lysate
B2: Renilla luciferase-Smad3 E267A (natural protein, UniProt P84022 1-425, looked up)
chain: MSSILPFTPPIVKRLLGWKKGEQNGQEEKWCEKAVKSLVKKLKKTGQLDELEKAITTQNVNTKCITIPRSLDGRLQVSHRKGLPHVIYCRLWRWPDLHSHHELRAMELCEFAFNMKKDEVCVNPYHYQRVETPVLPPVLVPRHTEIPAEFPPLDDYSHSIPENTNFPAGIEPQSNIPETPPPGYLSEDGETSDHQMNHSMDAGSPNLSPNPMSPAHNNLDLQPVTYCEPAFWCSISYYELNQRVGETFHASQPSMTVDGFTDPSNSARFCLGLLSNVNRNAAVELTRRHIGRGVRLYYIGGEVFAECLSDSAIFVQSPNCNQRYGWHPATVCKIPPGCNLKIFNNQEFAALLAQSVNQGFEAVYQLTRMCTIRMSFVKGWGAEYRRQTVTSTPCWIELHLNGPLQWLDKVLTQMGSPSIRCSSVS
notes: as for B1
B3: Renilla luciferase-Smad3 Y297A (natural protein, UniProt P84022 1-425, looked up)
chain: MSSILPFTPPIVKRLLGWKKGEQNGQEEKWCEKAVKSLVKKLKKTGQLDELEKAITTQNVNTKCITIPRSLDGRLQVSHRKGLPHVIYCRLWRWPDLHSHHELRAMELCEFAFNMKKDEVCVNPYHYQRVETPVLPPVLVPRHTEIPAEFPPLDDYSHSIPENTNFPAGIEPQSNIPETPPPGYLSEDGETSDHQMNHSMDAGSPNLSPNPMSPAHNNLDLQPVTYCEPAFWCSISYYELNQRVGETFHASQPSMTVDGFTDPSNSERFCLGLLSNVNRNAAVELTRRHIGRGVRLAYIGGEVFAECLSDSAIFVQSPNCNQRYGWHPATVCKIPPGCNLKIFNNQEFAALLAQSVNQGFEAVYQLTRMCTIRMSFVKGWGAEYRRQTVTSTPCWIELHLNGPLQWLDKVLTQMGSPSIRCSSVS
notes: as for B1
B4: Renilla luciferase-Smad3 K341A (natural protein, UniProt P84022 1-425, looked up)
chain: MSSILPFTPPIVKRLLGWKKGEQNGQEEKWCEKAVKSLVKKLKKTGQLDELEKAITTQNVNTKCITIPRSLDGRLQVSHRKGLPHVIYCRLWRWPDLHSHHELRAMELCEFAFNMKKDEVCVNPYHYQRVETPVLPPVLVPRHTEIPAEFPPLDDYSHSIPENTNFPAGIEPQSNIPETPPPGYLSEDGETSDHQMNHSMDAGSPNLSPNPMSPAHNNLDLQPVTYCEPAFWCSISYYELNQRVGETFHASQPSMTVDGFTDPSNSERFCLGLLSNVNRNAAVELTRRHIGRGVRLYYIGGEVFAECLSDSAIFVQSPNCNQRYGWHPATVCKIPPGCNLAIFNNQEFAALLAQSVNQGFEAVYQLTRMCTIRMSFVKGWGAEYRRQTVTSTPCWIELHLNGPLQWLDKVLTQMGSPSIRCSSVS
notes: as for B1
B5: Renilla luciferase-Smad3 S254A (natural protein, UniProt P84022 1-425, looked up)
chain: MSSILPFTPPIVKRLLGWKKGEQNGQEEKWCEKAVKSLVKKLKKTGQLDELEKAITTQNVNTKCITIPRSLDGRLQVSHRKGLPHVIYCRLWRWPDLHSHHELRAMELCEFAFNMKKDEVCVNPYHYQRVETPVLPPVLVPRHTEIPAEFPPLDDYSHSIPENTNFPAGIEPQSNIPETPPPGYLSEDGETSDHQMNHSMDAGSPNLSPNPMSPAHNNLDLQPVTYCEPAFWCSISYYELNQRVGETFHASQPAMTVDGFTDPSNSERFCLGLLSNVNRNAAVELTRRHIGRGVRLYYIGGEVFAECLSDSAIFVQSPNCNQRYGWHPATVCKIPPGCNLKIFNNQEFAALLAQSVNQGFEAVYQLTRMCTIRMSFVKGWGAEYRRQTVTSTPCWIELHLNGPLQWLDKVLTQMGSPSIRCSSVS
notes: as for B1
B6: Renilla luciferase-Smad3 P335A/P336A (natural protein, UniProt P84022 1-425, looked up)
chain: MSSILPFTPPIVKRLLGWKKGEQNGQEEKWCEKAVKSLVKKLKKTGQLDELEKAITTQNVNTKCITIPRSLDGRLQVSHRKGLPHVIYCRLWRWPDLHSHHELRAMELCEFAFNMKKDEVCVNPYHYQRVETPVLPPVLVPRHTEIPAEFPPLDDYSHSIPENTNFPAGIEPQSNIPETPPPGYLSEDGETSDHQMNHSMDAGSPNLSPNPMSPAHNNLDLQPVTYCEPAFWCSISYYELNQRVGETFHASQPSMTVDGFTDPSNSERFCLGLLSNVNRNAAVELTRRHIGRGVRLYYIGGEVFAECLSDSAIFVQSPNCNQRYGWHPATVCKIAAGCNLKIFNNQEFAALLAQSVNQGFEAVYQLTRMCTIRMSFVKGWGAEYRRQTVTSTPCWIELHLNGPLQWLDKVLTQMGSPSIRCSSVS
notes: as for B1
B7: Renilla luciferase-Smad3 Q322A/Y324A (natural protein, UniProt P84022 1-425, looked up)
chain: MSSILPFTPPIVKRLLGWKKGEQNGQEEKWCEKAVKSLVKKLKKTGQLDELEKAITTQNVNTKCITIPRSLDGRLQVSHRKGLPHVIYCRLWRWPDLHSHHELRAMELCEFAFNMKKDEVCVNPYHYQRVETPVLPPVLVPRHTEIPAEFPPLDDYSHSIPENTNFPAGIEPQSNIPETPPPGYLSEDGETSDHQMNHSMDAGSPNLSPNPMSPAHNNLDLQPVTYCEPAFWCSISYYELNQRVGETFHASQPSMTVDGFTDPSNSERFCLGLLSNVNRNAAVELTRRHIGRGVRLYYIGGEVFAECLSDSAIFVQSPNCNARAGWHPATVCKIPPGCNLKIFNNQEFAALLAQSVNQGFEAVYQLTRMCTIRMSFVKGWGAEYRRQTVTSTPCWIELHLNGPLQWLDKVLTQMGSPSIRCSSVS
notes: as for B1
B8: Renilla luciferase-Smad3 L340A (natural protein, UniProt P84022 1-425, looked up)
chain: MSSILPFTPPIVKRLLGWKKGEQNGQEEKWCEKAVKSLVKKLKKTGQLDELEKAITTQNVNTKCITIPRSLDGRLQVSHRKGLPHVIYCRLWRWPDLHSHHELRAMELCEFAFNMKKDEVCVNPYHYQRVETPVLPPVLVPRHTEIPAEFPPLDDYSHSIPENTNFPAGIEPQSNIPETPPPGYLSEDGETSDHQMNHSMDAGSPNLSPNPMSPAHNNLDLQPVTYCEPAFWCSISYYELNQRVGETFHASQPSMTVDGFTDPSNSERFCLGLLSNVNRNAAVELTRRHIGRGVRLYYIGGEVFAECLSDSAIFVQSPNCNQRYGWHPATVCKIPPGCNAKIFNNQEFAALLAQSVNQGFEAVYQLTRMCTIRMSFVKGWGAEYRRQTVTSTPCWIELHLNGPLQWLDKVLTQMGSPSIRCSSVS
notes: as for B1

Assays:
Assay in all cases: co-IP; LUMIER: Renilla luciferase-Smad3 and Flag-tagged partner co-expressed with constitutively active Alk5 in HEK-293; Flag protein captured from cleared lysate (TNE: 10 mM Tris-HCl pH 7.8, 150 mM NaCl, 1 mM EDTA, 1% Igepal CA-630) on anti-Flag 96-well plates, 2 h at 4 °C; co-precipitated Renilla luciferase activity, TrxGA background subtracted, percent of wild-type Smad3
Conditions in all cases: partners not purified
[1] = target: T2, Smurf2 Smad-binding domain (amino acids 252–330) on the Flag-thioredoxin scaffold (UniProt Q9HAU4 252-330)
T2 construct: Smurf2, amino acids 252–330; also called Smurf2 aa252–330; TrxSmurf2; source: HEK-293, transfected, in lysate
T2 sequence (Q9HAU4 252-330): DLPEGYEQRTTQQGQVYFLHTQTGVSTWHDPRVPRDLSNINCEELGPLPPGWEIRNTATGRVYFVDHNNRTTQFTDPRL

Flag-Smad3, full length = target: T3, Flag-Smad3, full length (UniProt P84022 1-425)
T3 construct: Smad3; plasmid pCMV5-Flag-Smad3 (from J. Massagué); bait for Smad3-Smad3 association; also called Smad3 FL; source: HEK-293, transfected together with constitutively active Alk5, in lysate

[2] = target: T1, Flag-SkiW274E, full length

| Binder | percent binding relative to wild-type Smad3 [1] | percent binding relative to wild-type Smad3 (Flag-Smad3, full length) | percent binding relative to wild-type Smad3 [2] |
| --- | --- | --- | --- |
| B1 | 153% | 100% | 111% |
| B2 | 379% | 222% | 137% |
| B3 | – | 82% | 29% |
| B4 | 130% | 95% | 55% |
| B5 | 113% | 105% | 78% |
| B6 | 255% | 109% | 118% |
| B7 | 308% | 143% | 100% |
| B8 | 259% | 99% | 57% |
